# Results as given in the nanobody polyreactivity screen of Harvey et al. (2022).
# Test: yeast display, Sf9 membrane polyspecificity reagent, FACS + sequencing; frameworks hold sequencing errors
# Method in brief: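 Galactose induction of a Saccharomyces cerevisiae BJ5465 synthetic nanobody display library ran 36–48 hours. The cells were then stained for 1 hour at 4 °C with 10% biotinylated, detergent-solubilized Sf9 membrane reagent, pulled down on streptavidin microbeads and FACS-sorted into low and high (top ~1%) gates on expression and reagent-binding fluorescence. Labels for polyreactivity follow the gate of origin.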
row,Sequence,polyreactivity (PSR sort gate)
1,QVQLVESGGGLVQAGGSLRLSCAASGLIFYRNALGWYRQEPGKERELVATISRRGGRTYYADSVKGRFTISRDNAKNTVYLQMNSLNPEDTAVYYCNADDYSSRGGYDSWGQGTQVTVSS,high polyreactivity
2,QVQLVESGGGLVQAGGSLRLSCAASGFIFTRNAMAWYRQAPGKEREMVAGISVRGGATYYADSVKGRFTLSRDNAKNSFYLQMNSLKPEDTAVYYCAARYWRGPRYDYWGQGTKVTVSS,high polyreactivity
3,QVQLVESGGGLVQAGGSLRLSCAASGRTFPIYAMGWYRQAPGKERELVAAITYSGGSTYYADSVKGRFTISRDNAKNTVYLQMNSLKPEDTAVYYCAVDGTKPYWHQRYDYWGQGTQVTVSS,low polyreactivity
4,QVQLVESGGGLVQAGGSLRLSCAASRFTFSGYAMGWYRQAPGKERELVATISSSGSTYADSVKGRFTISRDNAKNTVYLQMNSLKPEDTAVYYCAKRVPFFDYWGQGTQVTVSS,low polyreactivity
5,QVQLVESGGGLVQAGGSLRLSCAASGRTFGTYAMGWYRQAPGKERELVASITSGDSTNYADSVKGRFTISRDNAKNTVYLQMNSLKPEDTAVYYCNADIEFYVLFAYWGQGTQVTVSS,low polyreactivity
6,PVQLEESGGGLDQAGGSLRISCAASGRIFWAKAMGWYRQAPGKERELVAAINRRTGITYYADSVKGRFTISRDNAKNTVYFQMNSLKPEDTAVYYCAADWRTKCYDSLGQGTQVTVSS,high polyreactivity
7,QVQLVESAAGLVQAGGSLRISCAASGYTFWLYAMGWYRQAPGKEREFVAAISTSGGSTYADSVKGRFTISRDNAKNTVYLQMNSLKPEDTAVYYCNAGYLLYYDYHLFYWGQGTQVTVSS,low polyreactivity
8,QVQLVESGGGLVQAGGSLRLSCAASGRIFYSYAMGWYRQAPGKERELVAAISFSVGSTYYADSVKGRFTISRDNAKYTVYLQMNSLKPEDTAVYYCAASLGFPGYEYWGQGTQVTVSS,low polyreactivity
9,QVQLQESGRRPGAAGGSPRMSCAASGNIFWVAVMGRYRQEPGQERELVASIGFGCTTYYADSVKCRFTISRDNAKNTVYLQMISLKPEDTAVYYCAAPHYDWGELDYWGQGTQVPVSS,low polyreactivity
10,QVQLVESGGGLVQAGGSLRLSCAASGRTLRQYAMGRYRQAPGKERELVAAISRGGSTTYADSVKGRFTISRDNAKNTVYLQMNSLKPEDTAVYYCNAELNWYYYIHLDYWGQGTQVTVSS,low polyreactivity
11,QVQLVESGGGLVQAGGSLRLSCAASGFTSGYYAMGWYRQAPGKERELVAAISFSGDDTYYADSVKGRFTISRDNAKNTVYLQMNCLKPEVTAVYYCAAEYDLYFLDQGYWYVAFDYWGQGTQVTVSS,high polyreactivity
12,QVQLVESGGGKVQAGGSLRLSCASSGFTYDSNAMGSYRQAPGKERELVAAISTGGSTYYADSVKGPFTISRDNANITVYLQMYSLKPEDTAVYYCARDPPYPDTWYGYWGQGTQVTVSS,low polyreactivity
13,QVQLVESGGGLVQAGGSLRLSCAASGSIFHSYAQGWYRQAPGKERELVASITASGDSTYYADSVKGRFTISRDNAKNTVYLQMNSLKPEDTAVYYCNTQAVYGGGEGGYDYWGQGTQVTVSS,low polyreactivity
14,QVQLVESGGGLVQAGGSLRLSCAASGSILLINAMGWYRQAPGKERELVAAIRTGGSTYYADSVKGRFTISRDNAKNTVYLQMNSLKPEDTAVYYCAVRTGRRWWKFDYWGQGTQVTVSS,low polyreactivity
15,QVQLVESGGGLVQAGGTLRLSCAASGSIFAGYAMGWYRQAPGKVRELVATITSGGSTNYADSVKGRFTISRDNAKNTVYLQMNSLKPEETAVYYCAADVEDSIATSYTCGEYVYWGQGTQVTVSS,low polyreactivity
16,QVQLVESGGGLVQAGGSLLLSCAASGRIFDVYALGWYRQAPGTEREWVAAITWRVGSTYYADSVKGRFTISRDTAKNTVYLQMNSLKPEDTAVYYCAVDSFLVYSAVRPYDYWGQGTQVTVSS,low polyreactivity
17,QVQHVESGGGLVQAGSLRLSCAASGSTFPYNAMGWYREAPGKERELVATISWSGGSTYYADSVKGRFTISRDNAKNTVYLQMNSLKPEDTAVYYCNATYGSSYDYWGQGTQVTVSS,low polyreactivity
18,QVQLVESGGGLVQAGGSLRLSCAASGSIFDSYAMGWYRQAPGKERELVAVISESGGTTYYADSVKGRFTISRDNAKNTVYLQMNSLKPEDTAVYYCAAVWYYQFGVWGYYWGQGTQVTVSS,low polyreactivity
19,QVQLVESGGGLVQAGGSLRLSCAASGFTLYYSAMGWYRQAPGKERELVAAISYSGGSTYYADSVKGRFTISRDYAKNTVYLHMYSLKPEDTAVSYCAVQFSYGFTGGPIYDYWGQGTQVTVSS,low polyreactivity
20,QVQLVESGGGLVQAGGSLRLSCAASGSTFFLYAMGWYRQAPGKERELVAAISTTGGSTNYADSVKGRFTISRDNAKNTVYLQMNSLKPEDTAVYYCAAGPSAQSIYDHWGQGTQVTLSS,low polyreactivity
21,QVQLVESGGGLVQAGGSLRLSCAASGSTLAYNAMGWYRQAPGKERELVAAISSNGDSTYYADSVKGRFTISRDNAKNTVYLQMNSLKPEDTAVYYCAAGYYSRYYEAFEYYYWGQGTQVTVSS,high polyreactivity
22,QVQLVESGGGLVQAGGSLRLSCAASGFTFSAYDMGWYRQAPGKERELVAAISYSGGSTYYADSVKGRFTISRDTAKNTVYLQMNSLKPEDTAVYYCAADGYYTDYWGQGTQVTVSS,high polyreactivity

row,Sequence,polyreactivity (PSR sort gate)
1,QVQLVESGGGLVQAGGSLRLSCAASGFTFETYVMGWYRQAPGKERELVAAISRRGGSTYYADSVKGRFTISRDNAKNTVYLQMNSLKPEDTAVYYCGKDGGWSRLHYNYWGQGTQVTVSS,high polyreactivity
2,QLQLVESGGGLVQAGGSLRLSCAASGRIYLYAMGWSRQAPGKERELVAAITTRAGRTYYADSVKGRFTISRDNAKNTVYFQMNSLKPEDTAVYYCAADGTRYPAYGYWGQGTQVTVSS,low polyreactivity
3,QVQLVESGGGLVQAGGSLRLSCAASGRIFARNAMGSYRQAPGKERELVATIRVGGGSTYYADSVKGRFTISRDNAKNTVYLQMNSLKPEDTAVYYCAVRQLYSYPGDRRGYYWGQGTQVTVSS,low polyreactivity
4,QVQLVESVGGLVQAGGSLRLSCASSGLIFPIYTMGWYRQAPGKERELVAASSSRGGSTYYADSVKGRFTISRDNAKNSVYLQMNCLKPEDTAVYDFGSYDYSGQGTQVTVSS,high polyreactivity
5,QVQLVESGGGLVQAGGSLRLSCAASGIIFLHYAMGWYRQAPGKEREFVAAISWSGGSTHYADSVKGRFTISRDNAKNTVYLQMNSLKPEDTAVYYCAAYTFYSYDYWGQGTQVTVSS,high polyreactivity
6,QVQLVESGGGLVQAGGSLRISCAASGRICWNYALGWYRQAPGKEMELVASISYRGGSTYYADSVKGRVTISRDYAKNTVYLQMNSLKPEDTAVYYCAARSRQARRTDYGYWGQGTQVTVSS,high polyreactivity
7,QVQHVESGGGLVQAGGSLRLSCAASGSIFGQYAMGWDRQSPGKERELVAAISTSGGSTYYADSVKGRFTISRDNAKYSVYLQMYSLKPEDTAVYYCNAFNYGTQTYGYWGQGTQVTVSS,high polyreactivity
8,QVQLVESGGGLVQAGGSLRLSCAPSGSTFYPYAMGWYRQAPGKEREFVAAIRSSGTSTYYADSVKGRFTISRDNAKNTVYLQMNSLKPEDTAVYYCAARVRGYSVTRTKPASIGGGSWGQGTQVTVSS,high polyreactivity
9,QVQLVESGGGLVQAGGSLRLSCAASGRTFYSYSMGWYRQEPGQERELVALITWSGGTYYADSVKGRFTISRDNANNTVYLLMNSLKPEDTAVYYCNKYRPYGRIFHRAYGRDYWGQGTQVTVSS,high polyreactivity
10,QVQLVESGGGLVQAGGSLRLSCAASGRTFRRYTMGWYRQAPGKERELVAAITSGGRTNYADSVKGRFTISRDNAKNTVYLQMNSLKPEDTAVYYCNAQNEIWRVTFSPFDRWGYDYWGQGTQVTVSS,low polyreactivity
11,QVQLVESGGGLVQAGGSLRLSCAASGSIFELYAMGWYRQAPGKERELVAAISSTGGRTYYADSVKGRFTISRDNAKNTVYLQMNSLKPEDTAVYYCNKVWPRVHPWNYDYWGQGTQVTVSS,high polyreactivity
12,QVQLVESGGGLVQAGGSLSLSCAASGSTFDYYAMGWYRQAPGKERELVADITYSGGSTYYADSVKGRFTISRDNAKNTVYLQMNSLKPEDTAVYYCNAYYTVYTRYDYWGQGTQVTVSS,high polyreactivity
13,QVQLVESGGGLVQAGGSLRLSCAASGYIIGGNAMGWYRQAPGKERELVAVISSRGGRTYYADSVKGRFTISRDNAKNTVYLQMNSLKPEDTAVSYCNRDFSYQYKRDYWGQGTQVTVSS,high polyreactivity
14,QVQLVESGGGLVQAGGSLRLSCAASGRIFRGYAMGWYRQAPGKEREFVADITRSGGSTYYADSVKGRFTISRDNAKNTVYLQMNSLKPEDTAVYYCAREWYQYSPYHRFDYWGQGTQVTVSS,high polyreactivity
15,QVQLVESGGGLVQAGGSLRLSCAASGSTFYFYAMGWYRQAPGKERELVATISYSDGSTYYADSVKGRFTISRDNAKNTVYLQMNSLKPEDSAVYYCAKGSNDWVNFGYDYWGQGTQVTVSS,low polyreactivity
16,QDQLVESGGCLVQAGGSLRLSCAASGSISDSKAMGWYRQAPGKERELVAAISNGGSTNYADSVKGRFTISRDNAKNTVYLQMNSLKPEDTAVYYCARDYDIQNHEYDYWGQGTQVTVSS,low polyreactivity
17,QVQLVESGGGLVQAGGSLRLSCAASGSTFAYNDMGWYRQAPGKERELVADIRSGGNTNYADSVKGRFTISRDNAKNTVYLQMNSLKPEDTAVYYCASDGYRIDVYHPDYRYDYWGQGTQVTVSS,low polyreactivity
18,QVQLVESGGCLVQAGGSLRLSCAASGSTFTTNAMGWYIQAPGKERELVAAISWSGTTTYYADSVKGRFTISRDNAKNTGYLQMNSLKPEDTAVYYCAAQVVSGTVAYLDFGYWGQGTQVTVSS,low polyreactivity
19,QVQLVESGGGLVQAGGSLRLSCAASGFIFRTYAMGWYRQAPGKERELVAAISRGGGTTYYADSVKGRFTISRDNAKNTVYFQMNSLKPEDTAFYYCAAYSQYLKRDYWGQGTQVTVSS,high polyreactivity
20,QVQLVESGGGLVQAGGSLRLSCAASGFTFEYYAMGWYRQAPGKERELVAVITWNGGSTYYADSVKGRFTISRDNAKNTVYLQMNSLKPEDTAVYYCNVVPYLYNGGSHRYNYWGQGTQVTVSS,high polyreactivity
21,QVQLVESGGGLVQAGGSLLLSCAASGNTFYKYTMGWYRQAPGKERELVAVISSSSGSTYYADSVKGRFTISRDNAKNTVYLQMNSLKPEYTAVYYCKKRGWWDLRHYYWGQGTQVTVSS,low polyreactivity
